The text below walks through data of patent US20210299331A1, “PLURIPOTENT STEM CELL-DERIVED PLATE-SHAPED CARTILAGE AND METHOD FOR PRODUCING THE SAME” (KYOTO UNIVERSITY, priority 2018, published 2021).

In assay [1] the test system is human iPS cell line QHJI-derived cartilaginous particles. Description: In vitro integration of paired cartilaginous particles in round-bottom 96-well plate, cultured with FGFR inhibitor. Type of assay: cell-based. The protocol:
(§1) Two cartilaginous particles were put into a well of a round-bottom 96-well plate (see FIGS. 1A and 1B) and cultured under the conditions of 37° C. and 5% CO2 in chondrogenic medium (DMEM (Sigma) with 1% ITS, 1% FBS, 2 mM L-glutamine (Thermo), 1×10^−4 M non-essential amino acids (Thermo), 1 mM sodium pyruvate (Thermo), 50 U of penicillin, […] streptomycin, 50 μg/mL ascorbic acid (Nacalai), 10 ng/mL BMP2 (Peprotech), 10 ng/mL TGFβ1 (Peprotech), and 10 ng/mL GDF5 (PTT)). In total, 84 wells, each of which contained a pair of cartilaginous particles, were prepared. The wells were divided into 7 groups (12 pairs per group), and each was subjected to macroscopic and histological analyses at the predetermined time points ([…] after the start of the integration experiment). The medium was changed every day gently and carefully so as not to change the positions of the cartilaginous particles.
To further investigate the effects of FGF on the integration, an FGFR inhibitor, NVP-BGJ398 (ChemScene LLC), was used in the culture. NVP-BGJ398 was dissolved in DMSO to prepare a 50 μM stock solution. In total, 30 new pairs of cartilaginous particles were cultured under the conditions described in the above (3). Fifteen pairs were cultured in a medium supplemented with vehicle (0.3 μL of DMSO), and the other 15 pairs were cultured in a medium supplemented with 0.3 μL of the NVP-BGJ398 stock solution (final concentration: 50 nM). After 14 days of culture, the samples were subjected to histological analysis.
(§2) The pairs of cartilaginous particles were fixed with 4% paraformaldehyde, processed, and embedded in paraffin. 20 to 150 serial sections were prepared around the integrated portion of the sample so that the sections contain the most contact area between the paired cartilaginous particles (see FIG. 1C). Serial sections with the greatest contact portion were selected and used for further analysis. The sections were stained with hematoxylin-eosin and safranin O-fast green-iron hematoxylin and immunostained with a goat anti-type I collagen antibody (Souther Biotech) and an anti-type II collagen antibody (Thermo).
(§3) For statistical analysis, the degree of integration of cartilaginous particles at each time point was graded as follows: grade 0, no integration; grade 1, perichondrium-like membrane integration; grade 2, cartilage integration (Table 2). The grades are non-parametric data, and statistical analysis was performed using the Steel-Dwass test. All the samples were graded as 0 (no integration) on day 0 and graded as 2 (cartilage integration) on day 56.

The test system is the same in assay [2]. Description: In vitro integration of paired cartilaginous particles in round-bottom 96-well plate, cultured with FGF18. Type of assay: cell-based. The conditions noted are these: for Grade 0 No integration (number of pairs) / Grade 1 Integration by perichondrium-like membrane (number of pairs) / Grade2 Integration by cartilage (number of pairs): 15 pairs per group. How it is done:
as §1
Recombinant human FGF18 (PeproTech) was dissolved in phosphate-buffered saline (PBS) to prepare a stock solution (100 μg/mL). In total, 90 pairs of cartilaginous particles were cultured under the conditions described in the above (3). One pair per well was cultured in 0.3 mL of medium. Forty-five pairs were cultured in a medium supplemented with vehicle (0.3 μL of PBS), and the other 45 pairs were cultured in a medium supplemented with 0.3 μL of the FGF18 stock solution (final concentration: 100 ng/mL). The 45 pairs in each treatment group were further separated into three equal-sized groups and subjected to histological analysis (3, 7, or 14 days after the start of the experiment).
as §2, §3

Where [3] appears, read: Day 14, NVP-BGJ398 50 nM, 15 pairs per group, P < 0.01 vs Vehicle (Steel-Dwass).
Where [4] appears, read: Day 14, FGF18 100 ng/mL, P < 0.01 vs Vehicle (Steel-Dwass).

With `CCN1CCN(c2ccc(Nc3cc(N(C)C(=O)Nc4c(Cl)c(OC)cc(OC)c4Cl)ncn3)cc2)CC1` [NVP-BGJ398], in assay [1] (setting [3]), the “Grade 0 No integration (number of pairs)” value stood at 15, the “Grade 1 Integration by perichondrium-like membrane (number of pairs)” value (from here on “Grade 1 Integration”) was determined as 0 and the “Grade2 Integration by cartilage (number of pairs)” value (“Grade2 Integration by cartilage” below) worked out at 0. Further, the “Pairs of cartilaginous particles that showed integration” value in assay [1] (Day 14, NVP-BGJ398 50 nM, 15 pairs, vehicle 11 out of 15) was “no pairs”. For the same molecule, in assay [1] (NVP-BGJ398 50 nM in medium), the “Effect of addition to the medium on integration of cartilaginous particles” value was “inhibited the integration of cartilaginous particles”.

B1: FGF18: Recombinant human FGF18 (PeproTech), an FGF receptor agonist added to the culture medium (protein, UniProt O76093 28-207, looked up)
Fibroblast growth factor 18: EENVDFRIHVENQTRARDDVSRKQLRLYQLYSRTSGKHIQVLGRRISARGEDGDKYAQLLVETDTFGSQVRIKGKETEFYLCMNRKGKLVGKPDGTSKECVFIEKVLENNYTALMSAKYSGWYVGFTKKGRPRKGPKTRENQQDVHFMKRYPKGQPELQKPFKYTTVTKRSRRIRPTHPA
In the case of B1, in assay [2] (Day 3, FGF18 100 ng/mL), the “Grade 0 No integration (number of pairs)” value turned out to be 12, the “Grade 1 Integration” value turned out to be 3 and the “Grade2 Integration by cartilage” value worked out at 0. Besides, in assay [2] (Day 7, FGF18 100 ng/mL), the “Grade 0 No integration (number of pairs)” value was 10, the “Grade 1 Integration” value was determined as 5 and the “Grade2 Integration by cartilage” value is recorded as 0. Also, in assay [2] (setting [4]), the “Grade 0 No integration (number of pairs)” value is listed as 1, the “Grade 1 Integration” value is 14 and the “Grade2 Integration by cartilage” value was 0. Further, the “Integration of treated cartilaginous particles (observation)” value in assay [2] (Day 14, FGF18 100 ng/mL, vehicle showed minimal integration) was “substantial integration”. The “Integration grade versus vehicle-treated pairs (statistics)” value in assay [2] (Day 14, Steel-Dwass test) is given as “Significant difference”. Besides, the “Effect of addition to the medium on integration of cartilaginous particles” value in assay [2] (FGF18 100 ng/mL in medium) is “accelerated the integration of cartilaginous particles”. The “Histological finding in treated cartilaginous particles” value in assay [2] (FGF18 100 ng/mL, safranin O-fast green-iron hematoxylin sections) is recorded as “thick connection of the perichondrium-like membranes”.
